Experimental findings from article PMC10397247 are described below.

The target of experiment [1] is T1, O7-bS.
T1 chain: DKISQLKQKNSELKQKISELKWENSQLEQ
Put plainly: two-hybrid library CCNG1.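 Further: natural log of median RNA to DNA barcode read ratio; higher means stronger binding.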

Experiment [2] deals with T2, O6-bS.
T2 chain: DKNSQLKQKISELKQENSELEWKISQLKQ
Put plainly: two-hybrid library CCNG1.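 Further: natural log of median RNA to DNA barcode read ratio; higher means stronger binding.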

In experiment [3] the target is T3, O8-bS.
T3 chain: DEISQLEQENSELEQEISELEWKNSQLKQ
Briefly: two-hybrid library CCNG1.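 Further: natural log of median RNA to DNA barcode read ratio; higher means stronger binding.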

Experiment [4] addresses T4, O9-bS.
T4 chain: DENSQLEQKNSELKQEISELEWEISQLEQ
Put plainly: two-hybrid library CCNG1.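 Further: natural log of median RNA to DNA barcode read ratio; higher means stronger binding.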

Experiment [5] concerns the target T5, O9.
T5 chain: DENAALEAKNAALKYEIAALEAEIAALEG
Briefly: two-hybrid library CCNG1.

Experiment [6] deals with T6, O8.
T6 chain: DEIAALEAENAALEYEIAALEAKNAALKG
Put plainly: two-hybrid library CCNG1.

In experiment [7] the target is T7, O7.
T7 chain: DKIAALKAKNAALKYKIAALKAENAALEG
Put plainly: two-hybrid library CCNG1.

The target of experiment [8] is T8, 4H906-AA.
T8 chain: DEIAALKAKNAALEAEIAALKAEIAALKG
Briefly: two-hybrid library CCmax. Conditions: mean of both orientations.

For experiment [9], the target named is T9, 4H2393-AA.
T9 chain: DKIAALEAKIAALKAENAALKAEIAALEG
Put plainly: two-hybrid library CCmax. As to conditions: mean of both orientations.

Experiment [10] addresses T10, 4H2754-AA.
T10 chain: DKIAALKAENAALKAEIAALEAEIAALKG
Put plainly: two-hybrid library CCmax. As to conditions: mean of both orientations.

Experiment [11] has as its target T11, 4H605-AA.
T11 chain: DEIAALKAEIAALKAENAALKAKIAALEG
Briefly: two-hybrid library CCmax. Conditions: mean of both orientations.

Experiment [12] addresses T12, 4H2466-AA.
T12 chain: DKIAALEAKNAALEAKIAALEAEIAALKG
Put plainly: two-hybrid library CCmax. As to conditions: mean of both orientations.

In experiment [13] the target is T13, 4H3427-AA.
T13 chain: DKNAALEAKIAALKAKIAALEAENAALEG
Briefly: two-hybrid library CCmax. As to conditions: mean of both orientations.

Experiment [14] concerns the target T14, 4H3606-AA.
T14 chain: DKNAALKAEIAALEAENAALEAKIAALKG
Put plainly: two-hybrid library CCmax. As to conditions: mean of both orientations.

For experiment [15], the target named is T15, 4H48-AA.
T15 chain: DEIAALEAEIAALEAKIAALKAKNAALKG
Briefly: two-hybrid library CCmax. As to conditions: mean of both orientations.

Experiment [16] addresses T16, 4H794-AA.
T16 chain: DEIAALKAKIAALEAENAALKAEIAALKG
Briefly: two-hybrid library CCmax. As to conditions: mean of both orientations.

The target in experiment [17] is T17, 4H993-AA.
T17 chain: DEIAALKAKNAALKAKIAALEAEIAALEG
Briefly: two-hybrid library CCmax. Conditions: mean of both orientations.

The target of experiment [18] is T18, 4H2190-AA.
T18 chain: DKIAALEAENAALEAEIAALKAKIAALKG
Put plainly: two-hybrid library CCmax.

In experiment [19] the target is T19, 4H3112-AA.
T19 chain: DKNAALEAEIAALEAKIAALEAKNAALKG
Briefly: two-hybrid library CCmax. Conditions: mean of both orientations.

For experiment [20], the target named is T20, 4H3627-AA.
T20 chain: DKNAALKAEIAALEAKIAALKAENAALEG
Put plainly: two-hybrid library CCmax. As to conditions: mean of both orientations.

The target in experiment [21] is T21, 4H2642-AA.
T21 chain: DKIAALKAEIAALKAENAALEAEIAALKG
Briefly: two-hybrid library CCmax. Conditions: mean of both orientations.

In experiment [22] the target is T22, 4H780-AA.
T22 chain: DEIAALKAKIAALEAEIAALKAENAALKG
Put plainly: two-hybrid library CCmax. As to conditions: mean of both orientations.

Experiment [23] addresses T23, 4H717-AA.
T23 chain: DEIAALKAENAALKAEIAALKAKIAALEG
Briefly: two-hybrid library CCmax. As to conditions: mean of both orientations.

The target of experiment [24] is T24, 4H454-AA.
T24 chain: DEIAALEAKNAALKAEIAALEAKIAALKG
Put plainly: two-hybrid library CCmax. Conditions: mean of both orientations.

For experiment [25], the target named is T25, 4H3343-AA.
T25 chain: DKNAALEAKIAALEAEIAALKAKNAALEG
Briefly: two-hybrid library CCmax. Conditions: mean of both orientations.

Experiment [26] addresses T26, 4H881-AA.
T26 chain: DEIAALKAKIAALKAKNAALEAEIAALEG
Put plainly: two-hybrid library CCmax. Conditions: mean of both orientations.

The target in experiment [27] is T27, 4H2944-AA.
T27 chain: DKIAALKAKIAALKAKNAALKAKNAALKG
Put plainly: two-hybrid library CCmax. Conditions: mean of both orientations.

For experiment [28], the target named is T28, 4H335-AA.
T28 chain: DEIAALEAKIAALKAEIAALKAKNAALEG
Put plainly: two-hybrid library CCmax. As to conditions: mean of both orientations.

The target in experiment [29] is T29, 4H3655-AA.
T29 chain: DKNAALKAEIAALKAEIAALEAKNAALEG
Put plainly: two-hybrid library CCmax. As to conditions: mean of both orientations.

The target of experiment [30] is T30, 4H317-AA.
T30 chain: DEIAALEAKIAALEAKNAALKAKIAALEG
Put plainly: two-hybrid library CCmax. Conditions: mean of both orientations.

In experiment [31] the target is T31, 4H429-AA.
T31 chain: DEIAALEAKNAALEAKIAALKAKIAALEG
Put plainly: two-hybrid library CCmax. As to conditions: mean of both orientations.

The target of experiment [32] is T32, 4H2949-AA.
T32 chain: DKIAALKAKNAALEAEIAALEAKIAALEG
Put plainly: two-hybrid library CCmax. Conditions: mean of both orientations.

For experiment [33], the target named is T33, 4H2505-AA.
T33 chain: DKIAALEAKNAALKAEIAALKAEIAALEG
Briefly: two-hybrid library CCmax. Conditions: mean of both orientations.

The target of experiment [34] is T34, 4H234-AA.
T34 chain: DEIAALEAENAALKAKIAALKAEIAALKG
Put plainly: two-hybrid library CCmax. As to conditions: mean of both orientations.

Experiment [35] deals with T35, 4H2729-AA.
T35 chain: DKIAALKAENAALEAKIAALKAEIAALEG
Put plainly: two-hybrid library CCmax. As to conditions: mean of both orientations.

Experiment [36] has as its target T36, 4H342-AA.
T36 chain: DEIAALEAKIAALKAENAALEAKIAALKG
Briefly: two-hybrid library CCmax. As to conditions: mean of both orientations.

Experiment [37] concerns the target T37, 4H2575-AA.
T37 chain: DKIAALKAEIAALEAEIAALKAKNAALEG
Briefly: two-hybrid library CCmax. Conditions: mean of both orientations.

Experiment [38] deals with T38, 4H678-AA.
T38 chain: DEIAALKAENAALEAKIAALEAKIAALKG
Briefly: two-hybrid library CCmax. Conditions: mean of both orientations.

Experiment [39] has as its target T39, 4H2354-AA.
T39 chain: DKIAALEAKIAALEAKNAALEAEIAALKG
Put plainly: two-hybrid library CCmax. As to conditions: mean of both orientations.

The target of experiment [40] is T40, 4H3921-AA.
T40 chain: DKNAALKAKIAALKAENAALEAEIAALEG
Put plainly: two-hybrid library CCmax. As to conditions: mean of both orientations.

For experiment [41], the target named is T41, 4H2837-AA.
T41 chain: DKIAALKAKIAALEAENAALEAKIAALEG
Briefly: two-hybrid library CCmax. As to conditions: mean of both orientations.

In experiment [42] the target is T42, 4H2617-AA.
T42 chain: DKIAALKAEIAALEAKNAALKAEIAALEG
Briefly: two-hybrid library CCmax. Conditions: mean of both orientations.

Experiment [43] has as its target T43, 4H566-AA.
T43 chain: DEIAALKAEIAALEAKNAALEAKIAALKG
Briefly: two-hybrid library CCmax. Conditions: mean of both orientations.

Experiment [44] has as its target T44, 4H2277-AA.
T44 chain: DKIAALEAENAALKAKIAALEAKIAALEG
Briefly: two-hybrid library CCmax. As to conditions: mean of both orientations.

In experiment [45] the target is T45, 4H2883-AA.
T45 chain: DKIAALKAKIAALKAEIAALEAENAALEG
Put plainly: two-hybrid library CCmax. Conditions: mean of both orientations.

The target of experiment [46] is T46, 4H3844-AA.
T46 chain: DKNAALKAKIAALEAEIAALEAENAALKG
Briefly: two-hybrid library CCmax. Conditions: mean of both orientations.

As for DKNSQLKQKISELKQENSELEWKISQLKQ [O6-bS], the interaction score was -0.489 in [1], -1.84 in experiment [2], -1.78 in experiment [3] and -0.588 in experiment [4].

Regarding DKIAALKAKNAALKYKIAALKAENAALEG [O7], the interaction score is -2.46 in experiment [5], 1.54 in experiment [6] and -2.89 in experiment [7].

On to DKIAALEAENAALEAEIAALKAKIAALKG [4H2190-AA], for which the interaction score is 1.04 in [8]; 0.996 in experiment [9]; 2.3 in experiment [10]; -1.55 in experiment [11]; 0.489 in experiment [12]; -1.15 in [13]. In addition, the interaction score was -0.529 in experiment [14]; -0.0631 in [15]; -0.883 in [16]; 2.17 in experiment [17]; 2.19 in experiment [18]; -0.916 in [19]. The interaction score in experiment [20] is -0.558; in [21], -0.738; in [22] it was -1.55; in [23] it was 1.16; in experiment [24], 1.72; in experiment [25], -1.32. Further, the interaction score in [26] was 0.176; in experiment [27], -1.51; in experiment [28], 0.22; in experiment [29], 1.73; in experiment [30], 2.09; in experiment [31], 1.95. Also, the interaction score in experiment [32] was 2.07; in experiment [33] it was 2.21; in experiment [34], 1.66; in experiment [35] it was 2.26; in experiment [36], 0.437; in experiment [37] it was -0.718. Besides, the interaction score in [38] is -0.81; in experiment [39], -0.303; in [40] it was -1.21; in [41] it was -1.55; in [42], 0.788; in experiment [43] it was 0.26. In addition, the interaction score in [44] worked out at 1.06; in experiment [45] it was 0.596; in experiment [46], 0.147.
